The target of assay [1] is T1, MUC1* extra cellular domain peptide (Homo sapiens, UniProt P15941).
T1 sequence (P15941 with tags, fused parts or gaps): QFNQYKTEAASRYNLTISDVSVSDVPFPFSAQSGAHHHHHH
Nature of the assay: gold nanoparticle binding assay, NME7 and MUC1* peptide (FIG. 7). The settings on record: protein added free in solution. As for the experimental part:
Gold nanoparticles of a diameter of 30.0 nm were coated with an NTA-SAM surface according to Thompson et al. (ACS Appl. Mater. Interfaces, 2011, 3 (8), pp 2979-2987). The NTA-SAM coated gold nanoparticles were then activated with an equal volume of 180 uM NiSO4, incubated for 10 min at room temperature, washed, and resuspended in a 10 mM phosphate buffer ([…]). The gold nanoparticles were then loaded with PSMGER N-10 peptide ([…] (SEQ ID NO:155)) at 0.5 uM final concentration, and incubated at room temperature for 10 min. Recombinant NME7-AB protein expressed and purified from E. coli was added free in solution at the concentrations indicated. When particle-immobilized proteins bind to each other, or simultaneously bind to two different peptides on two different particles, the particle solution color changes from pink/red to purple/blue. If the protein added free in solution causes particle aggregation, it is strong evidence that the free protein dimerizes the cognate peptide, since binding to a single peptide would not induce two or more particles to be brought into close proximity to each other.
The NME7-AB is added free in solution at the concentrations indicated. Solution color change from pink to purple/blue from particle aggregation indicates binding between the MUC1* peptide on the particles and NME7 free in solution. […] Particle aggregation, indicating NME7 can simultaneously bind to two peptides is observed. […] The T47D breast cancer cell line Lysate, which contains native NME7 turns noticeably purple also.

A further assay concerns human stem cells. Nature of the assay: human stem cell culture in NME1 dimers or hexamers (FIG. 17D-G). In kind it is cell-based. The text has this:
(§1) By contrast, NME1 is roughly half the molecular weight of NME7 (˜17 kDa) and has only one NDPK domain. NME1 acts as a growth factor that promotes growth and inhibits differentiation only when it is a dimer. At higher concentrations, NME1 can form hexamers. […] Thus, NME1, which is expressed later in embryogenesis, has the ability to turn itself off, thus limiting self-replication, while NME7 cannot. Wild type (wt) NME1 exists primarily as a hexamer at measurable concentrations. Mutant NME1 proteins, such as S120G that form stable dimer populations have been isolated from cancers and thus are continuously activating the MUC1* receptor. We made recombinant NME1-wt, and the S120G mutant. By varying refolding protocols we were able to stabilize populations that were essentially 100% hexamer or 100% dimer. In addition we isolated populations of NME1-S120G that were a mixture of dimer, tetramer and hexamer. […] In nature, when the concentration of stem cells reaches critical mass and their secretions of NME1 reaches the concentration at which they form hexamers, differentiation is induced. FIG. 18 is a cartoon depicting the mechanism, supported by experiments described herein, by which NME7 and NME1 function to promote pluripotency wherein NME1 regulates itself.

Assay [2] has as its target T2, PSMGFR peptide of the MUC1* extracellular domain (Homo sapiens, UniProt P15941).
T2 sequence (P15941 1110-1154 limits assumed): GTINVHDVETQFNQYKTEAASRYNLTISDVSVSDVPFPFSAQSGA
In words: SPR and nanoparticle binding of NME1 multimers to PSMGFR peptide (FIG. 17). On the set-up: the PSMGFR peptide of the MUC1* extracellular domain is immobilized on the chip. The settings on record: for binding to MUC1* extracellular domain peptide (PSMGFR): SPR chip or gold nanoparticles.
From the text: MUC1* extra cellular domain peptide was immobilized onto gold nanoparticles.
as §1

A further assay concerns Human stem cells (iPS). In words: human iPS stem cell culture in NME7-AB or NM23-H1 dimers. The settings on record: 8 nM in minimal media over MN-C3 surface. In kind it is cell-based. As for the experimental part: Testing recombinant NME7 for ability to maintain pluripotency and inhibit differentiation. A soluble variant of NME7, NME7-AB, was generated and purified. Human stem cells (iPS cat #SC101a-1, System Biosciences) were grown per the manufacturer's directions in 4 ng/ml bFGF over a layer of mouse fibroblast feeder cells for four passages. These source stem cells were then plated into 6-well cell culture plates (Vita™, Thermo Fisher) that had been coated with 12.5 ug/well of a monoclonal anti-MUC1* antibody, MN-C3. Cells were plated at a density of 300,000 cells per well. The base media was Minimal Stem Cell Media consisting of: 400 ml DME/F12/GlutaMAX I (Invitrogen #10565-018), 100 ml Knockout Serum Replacement (KO-SR, Invitrogen #10828-028), 5 ml 100×MEM Non-essential Amino Acid Solution (Invitrogen#11140-050) and 0.9 ml (0.1 mM) β-mercaptoethanol (55 mM stock, Invitrogen #21985-023). The base media can be any media. In a preferred embodiment, the base media is free of other growth factors and cytokines. To the base media was added either 8 nM of NME7-AB or 8 nM NM23-H1 refolded and purified as stable dimers. Media was changed every 48 hours and due to accelerated growth had to be harvested and passaged at Day 3 post-plating. FIGS. 9 and 10 document the day by day comparison of growth in NM23-H1 dimers to growth in NME7 monomers. […] Cell counts at the first harvest verified that culture in NME7 produced 1.4-times more cells than culture in NM23-H1 dimers.

Assay [3] has as its target T2, PSMGFR peptide of the MUC1* extracellular domain. Nature of the assay: ELISA of NME6 binding to PSMGFR peptide (FIG. 19). From the text: NME6 is also expressed in very early embryogenesis. NME6 is reportedly a dimer in some species such as sea sponge. NME6 must be expressed at high enough levels that it can form dimers before it can activate growth and inhibit differentiation. Thus, it is expressed at a later stage than NME7. […] We made recombinant NME6 as the wild type protein, or with a single point mutation S139G, which mimics the S120G mutation that causes NME1 to prefer dimer formation. In addition, another NME6 variant was made so that in this sensitive area, the human NME6 would look like sea sponge NME6, which reportedly exists as a dimer. These mutations are S139A plus V142D and V143A. […] In part A, NME6-wt is purified as the monomer or as a high molecular weight multimer. […] In part B, the NME6 multimers are dissociated by dilution in SDS. […] The gels of FIG. 19 D-H show expression of NME6-wt (D), NME6 with the S139G mutation that corresponds to the mutation S120G which in human NME1 increases dimer formation (E), NME6 bearing three mutations that make the human form mimic the sea sponge form that is reported to be a dimer (F), and a single chain protein linking two NME6 proteins (G,H). […] Thus an effective anti-cancer agent would be an antibody, small molecule or other agent that disrupts binding of NME6 dimers to MUC1* extra cellular domain peptide. […]

Read-outs that look alike come from different tables or passages of the source.

Regarding “NME1 dimers: recombinant NME1 (NM23-H1) S120G mutant refolded and purified as stable dimers”, the “binding to MUC1* peptide on nanoparticles (color change pink to purple/blue)” value in assay [1] is “began to change almost immediately to purple”. In addition, in the assay with human stem cells, the “pluripotent stem cell growth / differentiation” value is on record as “promote pluripotent stem cell growth”. Moreover, the “binding to MUC1* extracellular domain peptide (PSMGFR)” value in assay [2] (listed as NM23 dimers) is “bind to the cognate receptor MUC1*”; in assay [2] (listed as dimer form of NME1), “binds to the MUC1* extracellular domain”. In assay [2] (first 10 amino acids of PSMGFR omitted), the “binding to N-10 version of the PSMGFR peptide” value was “bind to the N-10 version of the PSMGFR peptide”. Besides, the “stem cell growth, pluripotency and differentiation” value in the assay on Human stem cells (iPS) is reported as “no differentiation”.
In the case of “NME1 hexamers: recombinant NME1 in hexamer form”, in the assay with human stem cells, the “pluripotent stem cell growth / differentiation” value is “induce differentiation”.
“NME6: recombinant human NME6 wild type protein”: the “binding to PSMGFR peptide (ELISA)” value in assay [3] is “binds to the PSMGFR peptide”; in assay [3] (listed as NME6 monomer), “preferential binding”.

The values are drawn from patent publication US20240277803A1, “NME INHIBITORS AND METHODS OF USING NME INHIBITORS” (Minerva Biotechnologies Corporation, priority 2013, published 2024).
